How the values were obtained:
Src SH3-GST [1] = target: T1, Src SH3-GST (Homo sapiens, UniProt P12931); experiment: Biotinylated synthetic peptide binding ELISA to immobilized Src SH3-GST; conditions: not tested
T1 construct: Bacterially expressed Src SH3 glutathione-S-transferase (Src-GST) fusion protein was purified from bacterial lysates; made in house; host or cells: bacteria (pGEX vector)

Src SH3-GST [2] = target: T1, Src SH3-GST; experiment: Phage clone binding to immobilized GST-SH3 (elution titering / anti-phage ELISA); conditions: FIG. 14
Method: Library screens were performed as previously described. Kay, B. K., et al., in Gene (1993) 128:59-65. Briefly, 1'10^11 pfu TSAR 9, TSAR 12, or R8C phage in Buffer A were incubated in a Src SH3-GST-coated well for 2 hours. The wells were washed, and bound phage were eluted with 100 μL 50 mM glycine-HCl (pH 2.2), transferred to a new well, and neutralized with […] 200 mM NaHPO4 (pH 7.0). Recovered phage were used to infect 1×10^9 DH5αF′ E. coli cells in 20 mL 2×YT; the infected cells were grown overnight, resulting in a 1000- to 10,000-fold amplification of phage titer. Amplified phage were panned twice more, as above, excepting the amplification step. Binding phage recovered after the third round of panning were plated at a low density on a lawn of DH5αF′ E. coli cells to yield isolated plaques for clonal analysis. […]
(§1) Indeed, the ability of isolated phage clones to bind to several SH3 domains derived from a variety of different proteins can be investigated by the manner described above. […] From these experiments, the relative specificity of different Src SH3 binding clones for SH3 domains derived from other proteins is determined.
To evaluate the binding of isolates to various targets proteins, enzyme-linked-immuno-assays (ELISA) were also performed. […] Plates are read with a plate reader (Molecular Devices, Menlo Park, Calif.) at 405 nm wavelength. […]

Yes SH3 = target: T2, Yes SH3 (Homo sapiens, UniProt P07947); experiment: Phage clone binding to immobilized GST-SH3 (anti-phage ELISA); conditions: FIG. 14
T2 construct: a construct expressing the SH3 domain of Yes was obtained from Dr. Marius Sudol (Rockefeller University); made in house; host or cells: bacteria (pGEX vector)
T2 sequence (P07947 91-152 limits assumed): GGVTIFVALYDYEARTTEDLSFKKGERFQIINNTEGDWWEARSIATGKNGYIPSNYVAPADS
Method: as §1, with “above. GST-SH3 fusion proteins containing SH3 domains from a variety of different proteins are bound to microliter wells. An aliquot of the aforementioned phage stocks (50 μL) is introduced into wells containing the different GST-SH3 fusion proteins.” for “above.”
To evaluate the binding of isolates to various targets proteins, enzyme-linked-immuno-assays (ELISA) were also performed. […] Plates are read with a plate reader (Molecular Devices, Menlo Park, Calif.) at 405 nm wavelength.
Library screens were performed as described in Sparks, A., B., et al., in Methods in Enzymology, (1995) 255:498-509. […] The wells were washed five times with PBS+0.1% Tween 20, and bound phage were detected by anti-phage ELISA according to the manufacturer's instructions (Pharmacia, Piscataway, N.J.). […]
To explore further the capacity of SH3 domains to discriminate between different SH3 ligands, we investigated the binding of phage expressing various peptide ligands to a panel of SH3 domains. […] The wells were washed several times, and bound phage were detected with an anti-phage antibody (see FIG. 14). […]

surmised binding to a variety of SH3 domains (Src SH3-GST [1])	Sequence	cross-reactivity of Src SH3 domain with phage clone selected with another SH3 domain (Src SH3-GST [2])	cross-reactivity of Yes SH3 domain with phage clone selected with another SH3 domain (Yes SH3)
strong but generic binding	RSTPAPPVPPRTTR	–	–
–	MPPPVPPRPPGTL	cross-reacted	cross-reacted

Source: US6432920B1, “Nck SH3 binding peptides” (Cytogen Corporation, priority 1994, dated 2002)
